Results: patent publication US20090202980

T1: fibrin peptide 85 (FP13), human fibrin α-chain fragment α148-160
T1 chain: KRLEVDIDIKIRS

T2: fibrin peptide 86 (FP12)
T2 chain: KRLEVDIDIKIR

T3: fibrin peptide 87 (FP10), non-amyloid fragment of human fibrin α-chain(148-157)
T3 chain: KRLEVDIDIK

T4: human IAPP amyloid core fragment (ΔhIAPP)
T4 chain: SNNFGAILSS

T5: human islet amyloid polypeptide, full length (fl-hIAPP)
T5 chain: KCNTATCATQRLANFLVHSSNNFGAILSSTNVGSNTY

T6: mouse non-amyloidogenic IAPP(20-29) core (ΔmIAPP)
T6 chain: SNNLGPVLPP

T7: recombinant human β2-glycoprotein I (expressed in insect cells), P02749
T7 chain: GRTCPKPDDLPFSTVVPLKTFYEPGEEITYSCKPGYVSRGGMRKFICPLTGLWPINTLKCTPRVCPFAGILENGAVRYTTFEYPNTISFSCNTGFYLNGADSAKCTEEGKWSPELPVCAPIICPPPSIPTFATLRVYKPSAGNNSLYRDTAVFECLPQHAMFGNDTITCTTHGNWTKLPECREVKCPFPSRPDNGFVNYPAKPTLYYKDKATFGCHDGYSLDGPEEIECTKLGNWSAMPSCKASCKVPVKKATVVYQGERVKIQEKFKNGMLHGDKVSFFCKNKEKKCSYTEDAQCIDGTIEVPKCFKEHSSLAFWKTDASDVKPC

T8: β2-glycoprotein I purified from fresh human plasma (in solution), P02749
T8 chain: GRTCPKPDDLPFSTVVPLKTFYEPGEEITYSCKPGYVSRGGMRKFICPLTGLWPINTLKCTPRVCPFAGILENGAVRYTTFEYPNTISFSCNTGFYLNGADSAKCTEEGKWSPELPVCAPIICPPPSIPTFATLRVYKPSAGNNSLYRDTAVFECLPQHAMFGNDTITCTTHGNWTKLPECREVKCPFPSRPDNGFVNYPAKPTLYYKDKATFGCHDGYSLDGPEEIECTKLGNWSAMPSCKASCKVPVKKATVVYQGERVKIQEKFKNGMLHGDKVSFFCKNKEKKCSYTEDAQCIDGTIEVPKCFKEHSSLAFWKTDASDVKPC

T9: amyloid fragment of transthyretin (TTR11)
T9 chain: YTIAALLSPYS

T10: laminin α1-chain(2097-2108) amyloid core peptide (LAM12)
T10 chain: AASIKVAVSADR


How the values were obtained:
[1] = molecular target: endostatin (precipitated, cross-β structure-containing)
[2] = molecular target: T1, fibrin peptide 85 (FP13), human fibrin …
fibrin peptide 86 (FP12) = molecular target: T2, fibrin peptide 86 (FP12)
[3] = molecular target: T3, fibrin peptide 87 (FP10), non-amyloid …
[4] = molecular target: T4, human IAPP amyloid core fragment …
[5] = molecular target: human amyloid-β peptide Aβ(1-40)
[6] = molecular target: T5, human islet amyloid polypeptide, full …
[7] = molecular target: T6, mouse non-amyloidogenic IAPP(20-29) …
[8] = molecular target: T7, recombinant human β2-glycoprotein I …
[9] = molecular target: T8, β2-glycoprotein I purified from fresh …
[10] = molecular target: T9, amyloid fragment of transthyretin …
[11] = molecular target: T10, laminin α1-chain(2097-2108) amyloid …

Protein | tPA-mediated plasmin formation (plasminogen activation assay) [1] | tPA-mediated plasmin formation (plasminogen activation assay) [2] | tPA-mediated plasmin formation (plasminogen activation assay) (fibrin peptide 86 (FP12)) | tPA-mediated plasmin formation (plasminogen activation assay) [3] | tPA-mediated plasminogen activation [4] | activation of plasminogen by tPA (S-2251 conversion) [5] | tPA-mediated plasminogen activation [6] | tPA-mediated plasminogen activation [7] | tPA-mediated conversion of plasminogen to plasmin (S-2251 conversion) [8] | tPA-mediated conversion of plasminogen to plasmin (S-2251 conversion) [9] | auto-activation of factor XII (S-2222 conversion) (Aβ(1-40) E22Q) | auto-activation of factor XII (S-2222 conversion) (FP13 K157G) | factor XII activation (Chromozym PK conversion via kallikrein) [10] | factor XII activation (Chromozym PK conversion via kallikrein) [2] | factor XII activation (Chromozym PK conversion via kallikrein) [3] | factor XII activation (Chromozym PK conversion via kallikrein) [5] | factor XII activation (Chromozym PK conversion via kallikrein) [11] | factor XII activation (Chromozym PK conversion via kallikrein) [7]
recombinant tissue-type plasminogen activator (tPA) (protein) SYQVICRDEKTQMIYQQHQSWLRPVLRSNRVEYCWCNSGRAQCHSVPVKSCSEPRCFNGGTCQQALYFSDFVCQCPEGFAGKCCEIDTRATCYEDQGISYRGTWSTAESGAECTNWNSSALAQKPYSGRRPDAIRLGLGNHNYCRNPDRDSKPWCYVFKAGKYSSEFCSTPACSEGNSDCYFGNGSAYRGTHSLTESGASCLPWNSMILIGKVYTAQNPSAQALGLGKHNYCRNPDGDAKPWCHVLKNRRLTWEYCDVPSCSTCGLRQYSQPQFRIKGGLFADIASHPWQAAIFAKHRRSPGERFLCGGILISSCWILSAAHCFQERFPPHHLTVILGRTYRVVPGEEEQKFEVEKYIVHKEFDDDTYDNDIALLQLKSDSSRCAQESSVVRTVCLPPADLQLPDWTECELSGYGKHEALSPFYSERLKEAHVRLYPSSRCTSQHLLNRTVTDNMLCAGDTRSGGPQANLHDACQGDSGGPLVCLNDGRMTLVGIISWGLGCGQKDVPGVYTKVTNYLDWIRDNMRP | stimulating activity of cross-β structure-containing endostatin on tPA-mediated plasmin formation | peptides 85 and 86, both containing a cross-β structure, do stimulate the formation of plasmin by tPA | peptides 85 and 86, both containing a cross-β structure, do stimulate the formation of plasmin by tPA | peptide 87, which lacks a cross-β structure, does not | Both full-length (fl-hIAPP) and truncated amyloid core (Δ-hIAPP), but not mouse IAPP (Δ-mIAPP), stimulate tPA-mediated plasminogen activation | Aβ potently stimulates the activation of plasminogen by tPA | Both full-length (fl-hIAPP) and truncated amyloid core (Δ-hIAPP), but not mouse IAPP (Δ-mIAPP), stimulate tPA-mediated plasminogen activation | but not mouse IAPP (Δ-mIAPP) | Recombinant β2gpi and not β2gpi purified from fresh plasma, stimulates effectively the tPA-mediated conversion of plasminogen to plasmin | Recombinant β2gpi and not β2gpi purified from fresh plasma, stimulates effectively the tPA-mediated conversion of plasminogen to plasmin |  |  |  |  |  |  |  | 
human factor XII (Hageman factor) (protein) IPPWEAPKEHKYKAEEHTVVLTVTGEPCHFPFQYHRQLYHKCTHKGRPGPQPWCATTPNFDQDQRWGYCLEPKKVKDHCSKHSPCQKGGTCVNMPSGPHCLCPQHLTGNHCQKEKCFEPQLLRFFHKNEIWYRTEQAAVARCQCKGPDAHCQRLASQACRTNPCLHGGRCLEVEGHRLCHCPVGYTGAFCDVDTKASCYDGRGLSYRGLARTTLSGAPCQPWASEATYRNVTAEQARNWGLGGHAFCRNPDNDIRPWCFVLNRDRLSWEYCDLAQCQTPTQAAPPTPVSPRLHVPLMPAQPAPPKPQPTTRTPPQSQTPGALPAKREQPPSLTRNGPLSCGQRLRKSLSSMTRVVGGLVALRGAHPYIAALYWGHSFCAGSLIAPCWVLTAAHCLQDRPAPEDLTVVLGQERRNHSCEPCQTLAVRSYRLHEAFSPVSYQHDLALLRLQEDADGSCALLSPYVQPVCLPSGAARPSETTLCQVAGWGHQFEGAEEYASFLQEAQVPFLSLERCSAPDVHGSSILPGMLCAGFLEGGTDACQGDSGGPLVCEDQAAERRLTLQGIISWGSGCGDRNKPGVYTDVAYYLAWIREHTVS |  |  |  |  |  |  |  |  |  |  | the potency of the Aβ(1-40) E22Q is somewhat lower | FP13 K157G and Hb-AGE have a potency to induce auto-activation that is similar to the established surface activator DXS500k | cross-β structure-rich peptides LAM12 and TTR11 stimulate factor XII activation, to a similar extent as kaolin | amyloid-like peptide aggregates of FP13 and Aβ stimulate the activation of factor XII | non-amyloid controls FP10 and mIAPP do not activate factor XII | amyloid-like peptide aggregates of FP13 and Aβ stimulate the activation of factor XII | cross-β structure-rich peptides LAM12 and TTR11 stimulate factor XII activation, to a similar extent as kaolin | non-amyloid controls FP10 and mIAPP do not activate factor XII
